We go through 46 substances from patent US12065471B2, “B*44 restricted peptides for use in immunotherapy against cancers and related methods” (Immatics Biotechnologies GmbH, priority 2018, dated 2024).

This assay concerns the target HLA-B*44:05 (Homo sapiens, UniProt P01889, A223V/A65T/A93T/A95T/D201E/D98Y/E176V/E187L/E204Q/E69K/G107R/H137Y/K202T/L105A/L119I/N104T/N87E/Q56L/Q94N/R106L/R155S/R180D/S101N/S121R/S35A/S48T/T118I/V36M/W191S/Y91S). Nature of the assay: MHC binding assay (UV-ligand exchange, β2m ELISA, peptide exchange yield). The conditions noted are these: binding to HLA-B*44:05. The source says:
Candidate peptides for T cell-based therapies according to the present invention were further tested for their MHC binding capacity (affinity). The individual peptide-MHC complexes were produced by UV-ligand exchange, where a UV-sensitive peptide is cleaved upon UV-irradiation and exchanged with the peptide of interest as analyzed. Only peptide candidates that can effectively bind and stabilize the peptide-receptive MHC molecules prevent dissociation of the MHC complexes. To determine the yield of the exchange reaction, an ELISA was performed based on the detection of the light chain (β2m) of stabilized MHC complexes. The assay was performed as generally described in Rodenko et al. (Rodenko et al., 2006)
96 well MAXISorp plates (NUNC) were coated over night with 2 μg/ml streptavidin in PBS at room temperature, washed 4× and blocked for 1 h at 37° C. in 2% BSA containing blocking buffer. Refolded HLA-A*02:01/MLA-001 monomers served as standards, covering the range of 15-500 ng/ml. Peptide-MHC monomers of the UV-exchange reaction were diluted 100-fold in blocking buffer. Samples were incubated for 1h at 37° C., washed four times, incubated with 2 μg/ml HRP conjugated anti-β2m for 1h at 37° C., washed again and detected with TMB solution that is stopped with […]. Absorption was measured at 450 nm.
As to “98 (SEESAGPLL; listed as Homo sapiens) [compound 98]”, the “Peptide exchange (MHC class I binding score, peptide exchange yield)” value (“Peptide exchange” below) is “+++ (>50 = +++)”.

As for “34 (AEPPILYSEY; listed as Homo sapiens) [compound 34]”, the “Peptide exchange” value is “++ (>20% = ++)”.

On to “335 (SETPTLQGL; listed as Homo sapiens) [compound 335]”, for which the “Peptide exchange” value is given as “+++ (>50 = +++)”.

“258 (IEVSSPITL; listed as Homo sapiens) [compound 258]”: the “Peptide exchange” value was “++++ (>75% = ++++)”.

Consider “200 (KELSVFKKF; listed as Homo sapiens) [compound 200]”, for which the “Peptide exchange” value was “+++ (>50 = +++)”.

As for “315 (MEQQSQEY; listed as Homo sapiens) [compound 315]”, the “Peptide exchange” value is given as “+++ (>50 = +++)”.

In the case of “241 (QELLDIANYL; listed as Homo sapiens) [compound 241]”, the “Peptide exchange” value is “++++ (>75% = ++++)”.

Turning to “337 (VEVIPEGAML; listed as Homo sapiens) [compound 337]”, the “Peptide exchange” value is “+++ (>50 = +++)”.

As for “1 (KEVDPASNTYTL; listed as Homo sapiens) [compound 1]”, the “Peptide exchange” value is “++ (>20% = ++)”.

As to “292 (HELALRQTV; listed as Homo sapiens) [compound 292]”, the “Peptide exchange” value is “++++ (>75% = ++++)”.

“286 (DELSVGRY; listed as Homo sapiens) [compound 286]”: the “Peptide exchange” value was “++ (>20% = ++)”.

Take “295 (QELEQEVISL; listed as Homo sapiens) [compound 295]”: the “Peptide exchange” value is listed as “+++ (>50 = +++)”.

For the substance “290 (AECILSKRL; listed as Homo sapiens) [compound 290]”, the “Peptide exchange” value is “+++ (>50 = +++)”.

For “386 (EESDYITHY; listed as Homo sapiens) [compound 386]”, the “Peptide exchange” value was “+++ (>50 = +++)”.

For “192 (LEIMTNLVTL; listed as Homo sapiens) [compound 192]”, the “Peptide exchange” value is listed as “++++ (>75% = ++++)”.

Regarding “206 (SEDPEKYYL; listed as Homo sapiens) [compound 206]”, the “Peptide exchange” value is given as “+++ (>50 = +++)”.

On to “198 (REEEANVVL; listed as Homo sapiens) [compound 198]”, for which the “Peptide exchange” value is recorded as “+++ (>50 = +++)”.

On to “50 (SEYVHSSFSGF; listed as Homo sapiens) [compound 50]”, for which the “Peptide exchange” value is listed as “+++ (>50 = +++)”.

Turning to “210 (AEGEPPPALAW; listed as Homo sapiens) [compound 210]”, the “Peptide exchange” value is “+++ (>50 = +++)”.

As for “314 (EMREERKF; listed as Homo sapiens) [compound 314]”, the “Peptide exchange” value is recorded as “++ (>20% = ++)”.

As for “55 (TEFHMQFSY; listed as Homo sapiens) [compound 55]”, the “Peptide exchange” value is “++++ (>75% = ++++)”.

Consider “231 (AEALVDGKWQEF; listed as Homo sapiens) [compound 231]”, for which the “Peptide exchange” value is given as “+++ (>50 = +++)”.

On to “111 (QEIDQKRLEF; listed as Homo sapiens) [compound 111]”, for which the “Peptide exchange” value is listed as “++ (>20% = ++)”.

On to “277 (VEFPATRSL; listed as Homo sapiens) [compound 277]”, for which the “Peptide exchange” value is “+++ (>50 = +++)”.

In the case of “283 (VEEEISRHY; listed as Homo sapiens) [compound 283]”, the “Peptide exchange” value is “++ (>20% = ++)”.

Turning to “356 (TEAVLNRY; listed as Homo sapiens) [compound 356]”, the “Peptide exchange” value was “++ (>20% = ++)”.

Turning to “378 (QELFLQEVRM; listed as Homo sapiens) [compound 378]”, the “Peptide exchange” value is “+++ (>50 = +++)”.

As to “162 (EAYDIELNKW; listed as Homo sapiens) [compound 162]”, the “Peptide exchange” value was “+++ (>50 = +++)”.

On to “345 (AEYQAAILHL; listed as Homo sapiens) [compound 345]”, for which the “Peptide exchange” value is “+++ (>50 = +++)”.

For the substance “161 (GESSEVKAVL; listed as Homo sapiens) [compound 161]”, the “Peptide exchange” value was “+++ (>50 = +++)”.

With “441 (QEVAQVASAIL; listed as Homo sapiens) [compound 441]”, the “Peptide exchange” value is “++++ (>75% = ++++)”.

Regarding “209 (AEGEPPPAL; listed as Homo sapiens) [compound 209]”, the “Peptide exchange” value is listed as “+++ (>50 = +++)”.

In the case of “147 (RMLSFQQMTW; listed as Homo sapiens) [compound 147]”, the “Peptide exchange” value is “++ (>20% = ++)”.

With “416 (DELMRKESQW; listed as Homo sapiens) [compound 416]”, the “Peptide exchange” value is “+++ (>50 = +++)”.

As for “435 (FETEQALRL; listed as Homo sapiens) [compound 435]”, the “Peptide exchange” value is reported as “+++ (>50 = +++)”.

“304 (RELGFTEATGW; listed as Homo sapiens) [compound 304]”: the “Peptide exchange” value was “++++ (>75% = ++++)”.

On to “176 (GETQQHIQL; listed as Homo sapiens) [compound 176]”, for which the “Peptide exchange” value is listed as “+++ (>50 = +++)”.

In the case of “84 (AETSYVKVLEY; listed as Homo sapiens) [compound 84]”, the “Peptide exchange” value is given as “+++ (>50 = +++)”.

In the case of “168 (EEGPSVPKIY; listed as Homo sapiens) [compound 168]”, the “Peptide exchange” value is on record as “++ (>20% = ++)”.

Regarding “169 (KEHNSSVPWSS; listed as Homo sapiens) [compound 169]”, the “Peptide exchange” value is listed as “++++ (>75% = ++++)”.

As for “142 (QELFLHPVL; listed as Homo sapiens) [compound 142]”, the “Peptide exchange” value is given as “++++ (>75% = ++++)”.

On to “174 (DENDAGNLITF; listed as Homo sapiens) [compound 174]”, for which the “Peptide exchange” value was “+++ (>50 = +++)”.

As for “294 (EEWEWIQKL; listed as Homo sapiens) [compound 294]”, the “Peptide exchange” value was “++++ (>75% = ++++)”.

As to “385 (LEHPFLVNLW; listed as Homo sapiens) [compound 385]”, the “Peptide exchange” value is on record as “++++ (>75% = ++++)”.

Turning to “272 (SEQNIQRANLF; listed as Homo sapiens) [compound 272]”, the “Peptide exchange” value is recorded as “+++ (>50 = +++)”.

Turning to “86 (QTLKAMVQAW; listed as Homo sapiens) [compound 86]”, the “Peptide exchange” value is given as “+++ (>50 = +++)”.
